Measurements taken from the nanobody polyreactivity screen of Harvey et al. (2022).

test: yeast display, Sf9 membrane polyspecificity reagent, FACS + sequencing; frameworks hold sequencing errors
In short: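 Sorting gates, low and high (top ~1%), were placed on anti-HA fluorescence to track expression and on streptavidin fluorescence to track reagent binding. A clone's polyreactivity label is taken from the gate it came out of. The reagent was 10% biotinylated, detergent-solubilized Sf9 membrane, applied for 1 hour at 4 °C to galactose-induced yeast display cells.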

Sequence	polyreactivity (PSR sort gate)
QVQLVESGGGLVQAGGSLRLSCAASGSTFYANAMGWYRQAPGKERELVAVIRWSGGSTYYADSVKGRFTISRDNAKNTVYLQMNSLKPEDTAVYYCNADFYRVAYLRRYSHFDYWGQGTQVTVSS	high polyreactivity
QVQLVESGGGLVQAGGSLRLSCAASGRTFETNAMGWYRQAPGKERELVASINWSGGSTYYADSVKGRFTISRDNAKNTVYLQMNSLKPEDTAVFYCAADHSYWDWWSYYYWGQGTQVTVSS	low polyreactivity
QVQLVESGGGLVQAGGSLRLSCAASGLTLRRYAMGWYRQAPGKEREMVASINSGTSTKYADSVKGRFTISRDNAKNTVYLQMNSLKPEDTAVYYCGAAGYFPTAGSRRAYYYWGQGTQVSVSS	high polyreactivity
QVQLVESGGGLVQAGGSLRLSCAASGIILGDYAMGWYRQAPGKERELVAAITSTGGRTYYADSVKGRFTISRDNAKNTVYLQMNSLKPEDTAVYYCAAQGSYRRYRPYYYWGQGTQVTVSS	high polyreactivity
QVQLVESGGGLVQAGGSLRLSCAASGSTSGSYGMGWYRQAPGKERELVAAIRWSGGRTYYADSVKGRFTISRDNAKNTVYLQMNSLKPEDTAVYYCAKYRYTVAGYNYWGQGTQVTVSS	high polyreactivity
QVQLVESGGGLVHAGGSLRLSCAASGRIFRSYAMGWYRQAPGKERELVAAITSRGGSTYYADYVKGRFTISRDNAKNTVYLQMNILKTEDTAVYYCAADSFRLGVAAWTRYNYWGQGTQVTVSS	high polyreactivity
QVQLVESGGGLVQAGGSLRLSCAASGFIFRQNAMGWSRQAPGKDRELVAAISNAGITNYADSVKGRFTISRDNAKITVYLQMNSLKPEDTAVYYCAAVEFRDSTFVVVSSPTSKSDYWGQGTQVTVSS	low polyreactivity
QVQLVESGGGLVQEGGSLRLSCAASGRTFTTYAMGWYRQAPGKERELVAAISDTGGITYYADSVKGRFTISRDTAKNTVYIQMNSLKPEDTAVYYCNAESYGGDYDYWGQGTQVTVSS	low polyreactivity
QVQLVESGGGLDQAGGSLRLSCAASGRTIRYYTMGWYRQAPGTERELVATIRRGGTTYYADSVKGRFTISRDNAKNTVYLQMNSLKPEDTAVYYCAKESLYQYDYWGQGTQVTVSS	low polyreactivity
QVQLVESGGGLVQAGGSLRLSCAASGRIFFSTVMGWDRQAPGKERELVAAISWSGGSTYYADSVKGRFTISRDNAKNTVYLQMNSLKPEDTAVYYCNRLSASVQYGYWGQGTQVTVSS	high polyreactivity
QVQLVESGGGLVQAGGSLRLSCAASGFTFSRYAMGWYRQAPGKERELVAAIDDGGSTYYADSVKGRFTISRDNAKNTVYLQMNSLKPEDTAVYYCNARGYGTLNVRRERMDYWGQGTQVTVSS	high polyreactivity
QVQLVESGGGLVHAGGSLRLSCAASGSIFKVYAMGWYRQAPGKERELVASITSGGRTYADSVKGRFTISRDNAKNTVYLQRNSLKPEDTAVYYCSARSRSKFYYWGQGTQVTVSS	high polyreactivity
QVQLVESGGGLVQAGGRLRLSCAASGRTFYTYAMGWYRQAPGKERELVAAITSGGSTYSADSVKGRFTISRDNAKNTVYLQMNSLKPEDTAVYYCAAEFYYWRGFDYWGQGTQVTVSS	low polyreactivity
QVQLVESGGGLVQAGGSLRLSCAASGRTFVGNTMGWYRQAPGKERELVAAISTGDGSTTYADSVKGRFTISRDNAKNTVYLQMNSLKPEDTAVYYCNVKYRASYRTDFEYWGLGTQVTVSS	low polyreactivity
QVQLVESGGGLDQARGSLRLSCAASGITFHPNAMGWYRQAPGKERELVAAISGRRSRTYYADSVKGRFIISRDNAKNTVYLLLNSLKPEDTAVYYCAKDHPSGRQYDYWGQGTQVTVSS	high polyreactivity
QVQLVESGGGLVQAGGSLRLSCAASGRTFFSNAMGWYRQAPGKERELVAAISNGDNTYFADSVKGRFTISRDNAKNTVYLQMNSLKPEDTAVYYCNTVRRSYWSWSTENSDYWGQGTQVTVSS	low polyreactivity

Sequence	polyreactivity (PSR sort gate)
QVQLQESGGGLVQAGGSLRLSCAATGTIFTDRFMGWYLQAPGKERELVACISPGTSTNYADSVKGRFTISRDNAKNTVYLKINSLKPEDTAVYYCAADWSTGNNLPYWGQGTQVTVSS	high polyreactivity
QVQLVESGGGLVQAGGSLRLSCAASGSIFTSYGMGWYRQAPGKERELVAAITYSGDRTYYADSVKGRFTISRDNAKITVYLQMNSLNPEDTAVYYCNVAYVYGSFRRRPMGYWGQGTQVTVSS	high polyreactivity
QVQLVESGGGLVQAGGSLRLSCAASGLIFVQNAMGWYRPAPGKERELVAAISSRGTNTYYADSVKGRFTISRDTAKNTVYLQMNSLKPEDTAVYYCAKPLKTPRPNYDYWGQGTQVTVSS	low polyreactivity
QVQLVESGGGLVQAGGSLRLSCAASGRTFWRYAMGWYRQAPGKERELVAAISVSGGTTYYADSVKGRFTISRDNAKNTVYLQMNSLKPEDTAVYYCAARYGSIYSILYYGFDYWGQGTQVTVSS	high polyreactivity
QVQLVDSGGGLVQAGGSLRLSCAASGSIFVFYDMGWYSQAPGKEREMVATISSGGGGTYYTDSVKGRFTISRDNAKNTVYLQMNSLKPEDTAVYYCAAEGDKYGKGYGYWGQGTQVTVSS	low polyreactivity
QVQLVESGGVLVQAGGSLRLSCAASGRTFRYYVKGWYRRAPGKERELLASITSNGDSTYYADSVKGRFTISRDNAKNTVYLQMNSLKPEDTAVYYCAVRWRDYRGSYRGFEYWGQGTQVTVSS	high polyreactivity
QVQLVESGGGLVQAGGSLRISCAASGGTFRPNAKGWSRQAPGKERELVAAITRSGGSTYYADSVKGRFTISRDNAKNTVYLQRNSLKPEETAVYYCARDLREWGQGTQVTVSS	low polyreactivity
QVQLVESGGGLVQAGGSLRLSCAASGSTFVGYTMGWYRQAPGKERELVASITSDGSTNYADSVKGRFTISRDNAKNTVYLQMNSLKREDTAVYYCNADWSSLYVGEFDYWGQGTQVTVSS	low polyreactivity
QVQLEESGGGLVQAGGSLRLSCAASGRTFSGYAMGSYRQAPGKDRELVAAITRRGGTTYYADSVKGRFTISRDNAKNTVYLQMNSLKPEDTAVYYCAAAKPRVISQKIIYYYWGQGTQVTVSS	high polyreactivity
QVQLVESGGGLVQAGGSLRLSCAASGSIFYAYVMGWYRQAPGKERELVAAISSRGGSTHYADSVKGRFTISRDNAKNTVYLQMNSLKPEDTAVYYCAAARGKDGYWGQGTQVTVSS	high polyreactivity
QVQLVESGGGLVQAGGSLRLSCAASGSIFGFYAMGWYIQAPGKERELVAAISDSGDSTYYADSVKGRFTISRDNAKNTVYLQMNSLKPEDTAVYYCATDGRSNYYWGDYWGQGTHVTVSS	low polyreactivity
LGQVVESGGGLVQAGGSLRLSCAASGRIFHRNTMGWYRQAPGKEWELVAAISGSTGRTYYADSVKGRFPISRDNAKTTVYLQMNSLKPEDTAVYYCAKVYRRSGSVARYDYGGQGTQVTVSS	high polyreactivity
QVQLVESGGGLVQAGGSLRLSCSASGFIFRRYAMGWYRQAPGKEREFVAAITSSGTSTYYADSVKGRFTISRDNAKNTVYLQMNSLKPEDTAVYYCADVYQYTHYYSNYGYWGEGTQVTVSS	high polyreactivity
QVQLVESGGGLVQAGGSLRLSCAASGSIFKYYAMGWYRQAPGKERELVAAISSGGRTNYADSVKGRFTISRDNAKNTVYLQMNSLKPEDTAVYYCAAGWYRKHRQPSGVGGDYWGQGTQVTVSS	high polyreactivity
QVHLVESGGGLVQAGGSLRLSCAASGSIFHGYSMGWYRQAPGKERELVAAINSGDGSTYADSVKGRFTISRDNAKNTVYLQMNSLKPEDTAVYYCATDGTYYEHDYWGQATQVTVSS	low polyreactivity
QVQLVESGGGLVQAGGSLRLSCAASGSTFRHNAMGWYRQGPGKERELVATIRTSGGTTYYADSVKGRFTISRDNAKNTVYLQMNSLKPEDTAVYYCAAVSYLFLYQGYPIAYPMYYWGQGTQVTVSS	low polyreactivity
